Experimental data reported in CN108290942A.

B1: 抗信号素3A scFv抗体片段 A08 (scFv, part only; not given: linker and tags, not shown: large carriers)
scFv, part: EVQLLESGGGLVQPGGSLRLSCAASGFTFSDYAMSWVRQAPGKGLEWVSGIYYDDSSQYYADSVKGRFTISRDNSKNTLYLQMNSLRAEDTAVYYCAKNLGRFDYWGQGTLVTVSSQSVLTQPPSASGTPGQRVTISCTGSSSNIGSNAVTWYQQLPGTAPKLLIYDDNHRPSGVPDRFSGSKSGTSASLAISGLRSEDEADYYCGAWDDSLSAYVFGGGTKLTVL
B2: 抗信号素3A scFv抗体片段 F11 (scFv, part only; not given: linker and tags, not shown: large carriers)
scFv, part: EVQLLESGGGLVQTGGSLRLSCAASGFTFSDYAMSWVRQAPGKGLEWVSWIYYDSGSKYYADSVKGRFTISRDNSKNTLYLQMNSLRAEDTAVYYCAKLNGDFDYWGQGTLVTVSSQSVLTQPPSASGTPGQRVTISCSGSSSNIGNNDVSWYQQLPGTAPKLLIYADSHRPSGVPDRFSGSKSGTSASLAISGLRSEDEADYYCGAWDSSLSGYVFGGGTKLTVL
B3: 抗信号素3A scFv抗体片段 C10 (scFv, part only; not given: linker and tags, not shown: large carriers)
scFv, part: EVQLLESGGGLVQPGGSLRLSCAASGFTFSDYAMSWVRQAPGKGLEWVSGIYYDDSSQYYADSVEGRFTISRDNSKNTLYLQMNSLRAEDTAVYYCARYLGLFDYWGQGTLVTVSSQSVLTQPPSASGTPGQRVTISCSGSSSNIGNNSVNWYQQLPGTAPKLLIYSDSQRPSGVPDRFSGSKSGTSASLAISGLRSEDEADYYCGSWDYSLSAYVFGGGTKLTVL

Each binder was assayed against T1, 细胞实际分泌的信号素3A (UniProt Q14563) (assay: cell-based or functional assay).
T1 sequence (looked up): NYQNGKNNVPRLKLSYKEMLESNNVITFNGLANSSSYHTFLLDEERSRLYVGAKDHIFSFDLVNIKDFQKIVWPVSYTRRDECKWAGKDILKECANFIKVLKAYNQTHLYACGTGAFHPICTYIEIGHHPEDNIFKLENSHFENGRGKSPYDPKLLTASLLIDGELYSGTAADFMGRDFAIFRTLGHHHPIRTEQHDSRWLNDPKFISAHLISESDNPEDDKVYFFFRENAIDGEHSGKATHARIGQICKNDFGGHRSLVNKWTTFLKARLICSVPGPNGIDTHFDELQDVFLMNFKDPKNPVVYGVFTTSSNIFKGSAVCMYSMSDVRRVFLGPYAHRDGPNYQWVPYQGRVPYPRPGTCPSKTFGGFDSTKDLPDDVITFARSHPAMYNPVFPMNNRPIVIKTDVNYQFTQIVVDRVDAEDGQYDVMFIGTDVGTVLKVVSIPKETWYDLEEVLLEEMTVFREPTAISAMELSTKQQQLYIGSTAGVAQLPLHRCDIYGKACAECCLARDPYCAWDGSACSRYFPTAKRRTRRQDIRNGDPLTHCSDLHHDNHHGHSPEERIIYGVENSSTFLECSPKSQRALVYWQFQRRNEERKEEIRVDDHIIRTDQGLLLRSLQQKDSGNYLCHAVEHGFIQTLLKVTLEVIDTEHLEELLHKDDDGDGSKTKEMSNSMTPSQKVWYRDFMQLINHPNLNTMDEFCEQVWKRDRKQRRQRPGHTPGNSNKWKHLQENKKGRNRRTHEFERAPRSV

Binder | 细胞生长速度 (EZ-Cytox, 131细胞, 50μg/ml scFv, 4天) | 细胞迁移 (transwell, 83细胞) | 细胞迁移 (transwell, 131细胞) | 细胞迁移 (transwell, U87-MG细胞, 50μg/ml scFv)
B1 | 70% | 21% | 11% | 78%
B2 | 70% | 28% | 7% | 74%
B3 | 70% | 44% | 19% | 70%
